Measured values as given in article PMC9399999 (2022).

Target: prototypic SARS-CoV-2 RBD (residues 319-541) (SARS-CoV-2 (prototype), UniProt P0DTC2 319-541)
Assay: SPR

B1: S304 antibody (IgG1) (antibody, V domains shown)
VH: EVQLVESGGGLVQPGGSLRLSCAASGFTFSSYDMHWVRQTTGKGLEWVSTIGTAGDTYYPDSVKGRFTISREDAKNSLYLQMNSLRAGDTAVYYCARGDSSGYYYYFDYWGQGTLLTVSS
VL: DIQMTQSPSSLSAAVGDRVTITCRASQSIGSYLNWYQQKPGKAPKLLIYAASSLQSGVPSRFSGSGSGTDFTLTISSLQPEDFAIYYCQQSYVSPTYTFGPGTKVDIK
In the case of B1, the koff is reported as 0.00664 s⁻¹.
